The record followed here is publication PMC7525151, “Fumarase From Cyanidioschyzon merolae Stably Shows High Catalytic Activity for Fumarate Hydration Under High Temperature Conditions” (Frontiers in Microbiology, 2020).

The subject of the data set is O=C(O)C[C@H](O)C(=O)O. Nature of the data set: purified protein. The settings on record: L-malate dehydration.
Where [1] appears, read: 100 mM Tris-HCl pH 8.5, 52 °C, pH 8.5.
The mark [2] stands for this setting: 100 mM Tris-HCl pH 7.5, 50 °C, pH 7.5.

TeFum (Thermosynechococcus vestitus BP-1), sequence (chain, as listed by the source): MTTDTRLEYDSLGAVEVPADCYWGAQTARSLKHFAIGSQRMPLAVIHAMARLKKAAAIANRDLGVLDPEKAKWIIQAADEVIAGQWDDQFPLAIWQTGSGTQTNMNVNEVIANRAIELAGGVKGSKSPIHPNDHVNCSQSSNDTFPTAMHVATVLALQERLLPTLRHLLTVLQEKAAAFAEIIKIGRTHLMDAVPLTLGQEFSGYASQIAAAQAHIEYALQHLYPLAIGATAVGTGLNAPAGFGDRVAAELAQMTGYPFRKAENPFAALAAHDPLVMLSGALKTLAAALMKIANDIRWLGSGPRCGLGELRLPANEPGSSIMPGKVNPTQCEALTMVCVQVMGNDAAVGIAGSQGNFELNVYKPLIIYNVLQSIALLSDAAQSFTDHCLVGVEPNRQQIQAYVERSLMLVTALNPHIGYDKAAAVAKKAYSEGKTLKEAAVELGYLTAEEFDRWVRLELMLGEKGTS
CmFUM (Cyanidioschyzon merolae strain 10D), sequence (chain, as listed by the source): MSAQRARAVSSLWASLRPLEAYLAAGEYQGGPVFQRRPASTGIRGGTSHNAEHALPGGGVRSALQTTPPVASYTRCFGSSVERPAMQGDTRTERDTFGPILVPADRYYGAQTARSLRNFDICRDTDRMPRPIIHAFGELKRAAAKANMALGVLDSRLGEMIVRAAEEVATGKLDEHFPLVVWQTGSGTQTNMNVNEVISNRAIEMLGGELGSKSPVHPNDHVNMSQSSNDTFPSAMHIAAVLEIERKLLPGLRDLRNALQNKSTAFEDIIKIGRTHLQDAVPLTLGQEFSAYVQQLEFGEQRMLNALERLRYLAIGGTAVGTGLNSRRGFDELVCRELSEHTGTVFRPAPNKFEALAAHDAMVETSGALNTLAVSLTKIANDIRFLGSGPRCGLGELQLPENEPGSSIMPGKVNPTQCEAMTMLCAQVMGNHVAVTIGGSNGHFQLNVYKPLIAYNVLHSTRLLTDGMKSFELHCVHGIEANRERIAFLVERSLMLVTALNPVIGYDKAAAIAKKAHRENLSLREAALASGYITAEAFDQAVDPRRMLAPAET

Take “CmFUM (Cyanidioschyzon merolae strain 10D)”: under setting [1], the Km (as a rule, the substrate concentration at which the rate is half of its maximum) came out at 1490 ± 120 µM; the kcat (as a rule, the number of substrate molecules converted per active site and unit of time at saturation) came to 244 s⁻¹; the kcat/Km (in general, the turnover number divided by the Michaelis constant) was 164000 M⁻¹ s⁻¹.

Consider “TeFum (Thermosynechococcus vestitus BP-1)”, for which, under setting [2], the Km is 200 ± 10 µM, the kcat worked out at 15 s⁻¹ and the kcat/Km is 76000 M⁻¹ s⁻¹.
